The values that follow come from PMC4713147.

The subject of the data set is H-NS (Escherichia coli). As to the kind of experiment: EMSA. The following applies: apparent Kd; 200 pM DNA; EMSA: H-NS 0-500 nM, 200 pM 32P-labelled DNA, 4% polyacrylamide gel run at 4 C; buffer, salt and pH not stated (as in ref 99).

In the case of GC rich region of pBR322, the Kd came to 0.2 µM.

Take bglG DRE (bglB primer pair): the Kd is 0.01 µM.
